Assay results as given in a protein production outcome set (Wang et al. 2014).

Experiment: label from the status in PepcDB records

Sequence | protein production
MALMTMVQALNRALDEEMAKDPRVVVLGEDVGKRGGVFLVTEGLLQKYGPDRVMDTPLSEAAIVGAALGMAAHGLRPVAEIQFADYIFPGFDQLVSQVAKLRYRSGGQFTAPLVVRMPSGGGVRGGHHHSQSPEAHFVHTAGLKVVAVSTPYDAKGLLKAAIRDEDPVVFLEPKRLYRSVKEEVPEEDYTLPIGKAALRREGKDLTLIGYGTVMPEVLQAAAELAKAGVSAEVLDLRTLMPWDYEAVMNSVAKTGRVVLVSDAPRHASFVSEVAATIAEDLLDMLLAPPIRVTGFDTPYPYAQDKLYLPTVTRILNAAKRALDY | not failed
MALPRSEDGLVLMWSGGKDAMLALDVLHSQSPRRVGALLTTVTADEERVTMHGTPLSLVERQADALNVPLHVMRVPPQPPNEVYEARLEAALTPLLENGFSTVVAGDLFLDDVRAYREALIESVGATALFPLWGRDTTWLAQRFSTRGYRAVVTAVDTTQLDSSFVGRTYDDSFLEDLPDAVDPCGEKGAFHTFVSDGPPFAASVPVAETGRDTTGRIHTVRLRATGEEA | failed
MALRLAVPAMTAQLPPGVTHVDCSTLDMPNAYVVVDDNETTLVDAGWPGDEQTVRDGLHTAGVEPGDIDRVLVTHYDADHVGTLARLTPALDAPVYVHERDAPYVAGDRLPPWTARNGIGALHRLYYRRLDLPDLPIRAVVDGDDIGGFHAYHTPGHTPGHVAYVHEDLSVAFLGDLAYGLGDRLKPTGWLTSSDAAAVESSVRSLCRRAPAFEYACPGHGPPLPDGDDRLAEALP | failed
MALSSAPILITGASQRVGLHCALRLLEHGHQVIISYRTEHASVAQLRQAGAHTLHGDFSSEASIMAFIEQLKSHTSSLRAIVHNASEWLAETPGDEAENFTRMFSVHMLAPYLINLHCEALLHASDVADIVHISDDVTRKGSSKHIAYCATKAGLESLTLSFAARFAPLVKVNGIAPALLMFQPKDDAAYRANALAKSAMGIEPGAEVIYQSLRYLLDSTYVTGTTLTVNGGRHVK | failed
MALSTEKKVGFFFMAGLVVLGVMLELGERWNPFEKNLPYVTYLSSTTGLKVGDPVRLAGVEVGKITRIDIEDGRVKVGFEVKPGTRIKTDSVATIRLTNLLGGQFLGISFGTQTADILAPGSEVKSREIANIDIIVDNVSDLTKDARTFLNDLNTNQNEVLGKISTMLDENRGNLKGAVQNLNSITAKMDRGEGSLAMLLNDKALYQNTNELATSLKTVTGKIERGEGSLGKLVNEDALYVEAKGALAELNAGAKDIKEIAAKINKGEGSVGKLVHDEALYNELRDASKNISDVARKINEGQGTLGKLVNDDKLYRDTAAAMKKLDKAADGLSDSGPISVLGSVVGTLF | failed
MALTFYQYPKCGTCQKAKKWLDQHGIEVNSVHIVEQPPSKEELKQLYEQSGLELKKFFNTSGKKYRELGLKDKVKEASEDELLETLASDGMLIKRPILTDGDKVTVGFKEAEYEETWKK | failed
MALVLVKYGTDHPVEKLKIRSAKAEDKIVLIQNGVFWALEELETPAKVYAIKDDFLARGYSEEDSKVPLITYSEFIDLLEGEEKFIG | not failed
MALYWNLRLSVKNWRSIQNNEKLIFQVLWPLKLLVALKFISTLEERLIIPESDKPHTPPEGRLPDATKGFDLLRDVFAKRMGLSDKDIVALSGSHTPISPSQS | failed
MAMADVTIRGAGIFGLSIAWACVLRGARVQVVDPFGPGAGSSGGLVGALAPHVPENWNAKKAFQFDSLIMAEGFWAGVEAAGGVSPGYGRTGRIQPLADERAVDLADERAENARTLWQGQAEWRVCPVDEMGSWCPPSPTGLVVHDTLSARMHPRRACAALVGALAVRGVEVLAEAPDRGQVIHATGIAGLEELNRARGRLVGTGVKGQAALLRFDAGRQAPQLFADTVHIVPHADGTLAIGSTSERDYDDPTSTDAALDTVLDRAMQAVPLLHGAEVIERWAGVRPRSRSRAPMLGAHPLYPDQFIANGGFKIGFGMAPKVAHVMAELVLEGQDNIPQDFRPEASL | failed
MAMGRTTQFTLDEVAKHADKDSCWLVIDGKVYAVEKFLNEHPGGEDVLLETAGRDATREFEDVGHSKSAREQLKEFYIGDVREPTAEELAAKRAVQASAAAERRDGDGVRANGLGKERLFAGGAFGAEPLSGGSSTWTLLKRLFVPVCIAVLVYLVREYSKQVQTGG | not failed
MAMLQTNLGFITSPTFLCPKLKVKLNSYLWFSYRSQGNFSYSLYTFKPMNLWFVQKLDFSKRVNRSYKRDALLLSIKCSSSTGFDNSNAVNSNVVVKEKSVSVILLAGGQGKRMKLCFWLRDVPKISLSLFLFCGVLEYEESIDVDLRFAIPGKERQDSVYSGLQEIDVNSELVCIHDSARPLVNTEDVEKVLKDGSAVGAAVLGVPAKATIKEVIKPELLKKGFELVKSEGLEVTDDVSIVEYLKHPVYVSQGSYTNIKVTTPDDLLLAERILSEDS | failed
